This is an account of results in article PMC11910882.

This data set addresses SlNSP2-GST (Solanum lycopersicum (tomato), UniProt A0A3Q7ITG8 1-487). Nature of the data set: EMSA. Background: In EMSA bound probe runs differently from free probe, usually more slowly.

B1: pSlABCG44-WT (dsDNA)
DNA 1: GAGTGAATTTGTTTGGTTCAATTTTGTCC
DNA 2: GGACAAAATTGAACCAAACAAATTCACTC
As to B1, the binding result is listed as “no binding”.
